According to FireProtDB (doi:10.1002/pro.346):

Details: Homo sapiens; pH 7.4; 25 °C; GdnHCl; CD; KPi 50 mM; structure 1TIT

| Substance | ddG of mutation (higher = less stable) [kcal/mol] | denaturant m value [kcal/mol/M] | denaturant midpoint (higher = more stable) [M] | unfolding free energy [kcal/mol] |
| --- | --- | --- | --- | --- |
| Titin Y12685F, Q8WZ42 | 0.4 | 2.2 | 2.5 | 5.5 |
| Titin Y12685G, Q8WZ42 | 0.8 | 2.2 | 2.3 | 5.1 |
| Titin Y12685P, Q8WZ42 | 2.2 | 2.2 | 1.7 | 3.7 |
| Titin Y12685S, Q8WZ42 | 0.2 | 2.2 | 2.6 | 5.7 |
